We go through 4 variants from IntAct's records for PubMed 9299557.

B1: Tumor necrosis factor alpha-induced protein 3 (Homo sapiens), P21580 (parent)
chain: MAEQVLPQALYLSNMRKAVKIRERTPEDIFKPTNGIIHHFKTMHRYTLEMFRTCQFCPQFREIIHKALIDRNIQATLESQKKLNWCREVRKLVALKTNGDGNCLMHATSQYMWGVQDTDLVLRKALFSTLKETDTRNFKFRWQLESLKSQEFVETGLCYDTRNWNDEWDNLIKMASTDTPMARSGLQYNSLEEIHIFVLCNILRRPIIVISDKMLRSLESGSNFAPLKVGGIYLPLHWPAQECYRYPIVLGYDSHHFVPLVTLKDSGPEIRAVPLVNRDRGRFEDLKVHFLTDPENEMKEKLLKEYLMVIEIPVQGWDHGTTHLINAAKLDEANLPKEINLVDDYFELVQHEYKKWQENSEQGRREGHAQNPMEPSVPQLSLMDVKCETPNCPFFMSVNTQPLCHECSERRQKNQNKLPKLNSKPGPEGLPGMALGASRGEAYEPLAWNPEESTGGPHSAPPTAPSPFLFSETTAMKCRSPGCPFTLNVQHNGFCERCHNARQLHASHAPDHTRHLDPGKCQACLQDVTRTFNGICSTCFKRTTAEASSSLSTSLPPSCHQRSKSDPSRLVRSPSPHSCHRAGNDAPAGCLSQAARTPGDRTGTSKCRKAGCVYFGTPENKGFCTLCFIEYRENKHFAAASGKVSPTASRFQNTIPCLGRECGTLGSTMFEGYCQKCFIEAQNQRFHEAKRTEEQLRSSQRRDVPRTTQSTSRPKCARASCKNILACRSEELCMECQHPNQRMGPGAHRGEPAPEDPPKQRCRAPACDHFGNAKCNGYCNECFQFKQMYG
partner: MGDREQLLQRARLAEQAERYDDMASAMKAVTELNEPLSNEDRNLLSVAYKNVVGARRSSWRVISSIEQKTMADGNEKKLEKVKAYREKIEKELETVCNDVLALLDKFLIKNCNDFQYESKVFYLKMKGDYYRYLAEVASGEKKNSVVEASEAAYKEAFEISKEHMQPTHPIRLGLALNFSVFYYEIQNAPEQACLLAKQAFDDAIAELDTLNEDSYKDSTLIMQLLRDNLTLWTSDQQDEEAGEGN
B2: Tumor necrosis factor alpha-induced protein 3 (Homo sapiens), P21580 (parent)
chain: B1 chain

In the first experiment the parent is B1. Conditions: with 1433f_mouse Ywhah.
Take S565A: the “effect of a mutation on the interaction” value is listed as “disrupting interaction”.

For R562A, the “effect of a mutation on the interaction” value is “disrupting interaction”.

The variants in another experiment derive from B2. As to conditions: with 1433z_mouse Ywhaz.
S565A: the “effect of a mutation on the interaction” value is reported as “disrupting interaction”.

On to R562A, for which the “effect of a mutation on the interaction” value was “disrupting interaction”.
